PMC7793260, “MreC and MreD balance the interaction between the elongasome proteins PBP2 and RodA” (PLoS Genetics, 2020)
Substitutions are numbered along the chain they refer to.

Columns and labels:
[1] = target: T1, mKO-PBP2^S330C (E. coli, UniProt P0AD65 1-633, S330C); assay: FRET or BRET; two-plasmid spectral FRET in E. coli LMC500 cells; mCherry fusion as acceptor, mKO fusion as donor; Gb4 medium, steady state at 28 C, 15 uM IPTG for two mass doublings, FAGA-fixed; acceptor FRET efficiency (EfA) by spectral unmixing; conditions: partners not purified
T1 construct: made from pWA004 by mutagenesis PCR; source: E. coli LMC500, expressed from plasmid (15 uM IPTG), in fixed cells; not shown: mKO, N-terminal, kept
T1 sequence (looked up): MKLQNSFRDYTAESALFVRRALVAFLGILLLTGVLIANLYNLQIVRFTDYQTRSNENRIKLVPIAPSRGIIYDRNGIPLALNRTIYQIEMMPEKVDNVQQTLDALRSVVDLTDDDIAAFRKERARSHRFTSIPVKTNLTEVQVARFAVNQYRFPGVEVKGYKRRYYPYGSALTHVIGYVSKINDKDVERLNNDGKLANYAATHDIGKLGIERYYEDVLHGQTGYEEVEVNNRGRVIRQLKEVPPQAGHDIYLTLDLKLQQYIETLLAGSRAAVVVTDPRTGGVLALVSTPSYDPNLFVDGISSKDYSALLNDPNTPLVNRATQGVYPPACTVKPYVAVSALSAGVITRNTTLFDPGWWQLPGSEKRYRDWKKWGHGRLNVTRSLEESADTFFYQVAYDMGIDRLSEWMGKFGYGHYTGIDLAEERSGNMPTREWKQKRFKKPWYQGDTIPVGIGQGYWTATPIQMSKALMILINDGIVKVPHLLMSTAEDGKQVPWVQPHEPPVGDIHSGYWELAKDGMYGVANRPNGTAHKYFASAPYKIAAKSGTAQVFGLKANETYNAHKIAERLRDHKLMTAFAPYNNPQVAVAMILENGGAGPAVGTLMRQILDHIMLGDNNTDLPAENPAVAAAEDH

[2] = target: T2, mKO-PBP2^L61R (E. coli, UniProt P0AD65 1-633, L61R); assay: as above; conditions: partners not purified
T2 construct: PBP2 of E. coli with L61R (hyperactive variant); made from pWA004 by mutagenesis PCR; also called hyperactive PBP2^L61R; source: E. coli LMC500, expressed from plasmid (15 uM IPTG), in fixed cells; not shown: mKO, N-terminal, kept
T2 sequence (looked up): T1 sequence (looked up) with L61R, C330S

[3] = target: T3, mKO-^MalF37PBP2 (E. coli, UniProt P02916 1-37; P0AD65 46-633); assay: as above; conditions: partners not purified
T3 construct: MalF of E. coli, the first 37 residues (cytoplasmic N-terminus and transmembrane helix), amplified from the MG1655 genome; PBP2 of E. coli excluding the first 45 residues (NT and TMH removed, periplasmic domain kept); also called PBP2 with the NT and TMH of MalF; source: E. coli LMC500, expressed from plasmid (15 uM IPTG), in fixed cells; not shown: mKO, N-terminal, kept
T3 chain (looked up): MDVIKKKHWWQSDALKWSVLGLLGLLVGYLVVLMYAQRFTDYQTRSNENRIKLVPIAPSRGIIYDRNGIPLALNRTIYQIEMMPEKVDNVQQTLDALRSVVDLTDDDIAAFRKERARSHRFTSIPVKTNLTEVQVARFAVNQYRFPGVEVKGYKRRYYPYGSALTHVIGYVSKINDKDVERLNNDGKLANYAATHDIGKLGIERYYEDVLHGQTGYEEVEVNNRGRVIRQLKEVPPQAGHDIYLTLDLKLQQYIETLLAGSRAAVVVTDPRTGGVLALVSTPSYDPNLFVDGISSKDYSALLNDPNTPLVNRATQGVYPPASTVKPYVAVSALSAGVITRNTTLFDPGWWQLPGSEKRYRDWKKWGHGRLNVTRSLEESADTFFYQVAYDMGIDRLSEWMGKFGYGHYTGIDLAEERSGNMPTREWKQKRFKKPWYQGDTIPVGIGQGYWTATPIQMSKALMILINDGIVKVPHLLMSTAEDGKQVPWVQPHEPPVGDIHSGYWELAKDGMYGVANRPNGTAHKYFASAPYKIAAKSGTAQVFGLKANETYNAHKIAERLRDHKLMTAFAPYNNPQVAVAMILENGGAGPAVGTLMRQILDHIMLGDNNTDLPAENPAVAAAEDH

[4] = target: the molecule itself; assay: as above
[5] = target: T3, mKO-^MalF37PBP2; assay: FRET or BRET; as the two-plasmid FRET, cells treated with mecillinam (2 mg/L) for two mass doublings; conditions: partners not purified

B1: RodA (wild type), fused to mCherry or to mKO (enzyme, E. coli, UniProt P0ABG7 1-370, looked up)
chain: MTDNPNKKTFWDKVHLDPTMLLILLALLVYSALVIWSASGQDIGMMERKIGQIAMGLVIMVVMAQIPPRVYEGWAPYLYIICIILLVAVDAFGAISKGAQRWLDLGIVRFQPSEIAKIAVPLMVARFINRDVCPPSLKNTGIALVLIFMPTLLVAAQPDLGTSILVALSGLFVLFLSGLSWRLIGVAVVLVAAFIPILWFFLMHDYQRQRVMMLLDPESDPLGAGYHIIQSKIAIGSGGLRGKGWLHGTQSQLEFLPERHTDFIFAVLAEELGLVGILILLALYILLIMRGLWIAARAQTTFGRVMAGGLMLILFVYVFVNIGMVSGILPVVGVPLPLVSYGGSALIVLMAGFGIVMSIHTHRKMLSKSV
notes: RodA, peptidoglycan glycosyltransferase of the E. coli elongasome; wild-type rodA gene; mCh-RodA in all others; also called mCh-RodA; mKO-RodA; source: E. coli LMC500, expressed from plasmid (15 uM IPTG), in fixed cells; not shown: mCherry (acceptor construct, pSAV047-RodA) or mKO (donor construct, pXL56), N-terminal, kept
EfA (acceptor FRET efficiency) [1]: 10.2%
EfA (acceptor FRET efficiency) [2]: 10.8%
EfA (acceptor FRET efficiency) [3]: 8.2%
EfA (acceptor FRET efficiency) [4]: 5.5%
EfA (acceptor FRET efficiency) [5]: 3%
